Experimental data as given in US20100158808A1, “Altered Activity of Toll-Like Receptors” (priority 2003, published 2010).

Molecular target: T1, TLR4 (Mus musculus, UniProt Q9JHF9+Q9QUK6)
T1 sequence (Q9QUK6 26-835): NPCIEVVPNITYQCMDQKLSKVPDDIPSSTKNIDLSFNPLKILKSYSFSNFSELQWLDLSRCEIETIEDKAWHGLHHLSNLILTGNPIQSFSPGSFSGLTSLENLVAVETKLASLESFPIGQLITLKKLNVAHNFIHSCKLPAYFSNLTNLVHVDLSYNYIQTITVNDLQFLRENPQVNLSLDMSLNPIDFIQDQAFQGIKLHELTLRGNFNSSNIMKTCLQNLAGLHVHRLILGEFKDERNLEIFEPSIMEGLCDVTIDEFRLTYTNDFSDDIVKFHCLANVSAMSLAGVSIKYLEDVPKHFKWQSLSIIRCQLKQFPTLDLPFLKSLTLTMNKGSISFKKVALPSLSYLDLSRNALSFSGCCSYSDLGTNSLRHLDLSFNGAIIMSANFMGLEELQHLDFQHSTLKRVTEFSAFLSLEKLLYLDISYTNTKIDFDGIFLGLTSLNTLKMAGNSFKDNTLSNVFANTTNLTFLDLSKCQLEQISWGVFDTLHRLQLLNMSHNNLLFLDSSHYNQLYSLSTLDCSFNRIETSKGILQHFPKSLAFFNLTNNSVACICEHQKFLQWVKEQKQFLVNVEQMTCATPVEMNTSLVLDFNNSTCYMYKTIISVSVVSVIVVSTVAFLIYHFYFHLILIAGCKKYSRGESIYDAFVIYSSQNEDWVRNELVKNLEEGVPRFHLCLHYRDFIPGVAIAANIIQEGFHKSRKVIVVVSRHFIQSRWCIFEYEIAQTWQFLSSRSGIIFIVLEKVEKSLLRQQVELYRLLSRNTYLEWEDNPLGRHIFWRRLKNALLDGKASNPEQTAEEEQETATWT
T1 sequence (Q9JHF9 19-160): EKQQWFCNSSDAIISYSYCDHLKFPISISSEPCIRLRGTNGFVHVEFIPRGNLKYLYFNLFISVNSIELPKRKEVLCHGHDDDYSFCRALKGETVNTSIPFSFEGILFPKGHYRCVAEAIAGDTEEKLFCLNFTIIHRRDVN
Test: NFκB-luciferase reporter assay in HEK 293 cells stably expressing TLR4, MD2 and/or CD14
Format: cell-based, murine
Parameters: expressed in transfected cells; host or cells: HEK 293
Method: Model ECM environment. Tissue culture plates were coated with ECM as follows. PAEC were seeded into 6-well (3×10^5 cells/well), 24-well (5×10^4 cells/well) or 100 mm (2×10^5 cells) fibronectin-coated tissue culture plates (BD Biosciences, San Jose, Calif.) in DMEM (Invitrogen) containing 10% fetal bovine serum supplemented with penicillin and streptomycin and 4% w/v of Dextran 40. The cell cultures were incubated at 37° C. in 5% CO2 humidified atmosphere for seven days and were supplemented with […] on day three and day five. After 7 days, endothelial cells were washed once with phosphate buffered saline (PBS) and lysed by exposure to 0.5% w/v Triton X-100 and 20 mM NH4OH in PBS (pH 7.4) at 37° C. for 20 minutes (Bonifacino, 1998). The wells were then washed 4 times with PBS (pH 7.4) and inspected microscopically to ensure removal of the cells. Plates were used immediately or were stored in PBS (pH 7.4) with […] at 4° C.
HEK 293 cells were stably transfected with the TLR4 and MD2 or CD14 expression plasmids using Superfect (Qiagen, Valencia, Calif.) following the manufacturer's instructions. HEK 293 cells expressing TLR4 and MD2 or CD14 were obtained by culturing the transfected cells with appropriate antibiotic selection medium, and were cloned by limiting dilution in the selection medium. HEK 293 cells expressing TLR4, MD2 and CD14 were generated by transfecting HEK 293 cells that expressed TLR4 and MD2 with the CD14 expression plasmid, and selecting clones using appropriate antibiotic containing medium. Cell lines expressing TLR4 and MD2 and/or CD14 were then maintained in DMEM supplemented with 10% fetal bovine serum and the appropriate selection antibiotics. Control cell lines were transfected with empty expression vectors and incubated in selection conditions as described above. Selected clones were tested for cell surface expression of the TLR4/MD2 complex and CD14 by flow cytometry using monoclonal antibodies specific for the TLR4/MD2 complex or CD14.
NFκB-luciferase reporter assays. Activation of NFκB was measured using a NFκB-luciferase reporter assay. HEK 293 cell lines stably expressing TLR4, MD2 and/or CD14, or control cells were seeded into 24 well tissue culture plates (2×10^5 cells/well) in 1.0 ml DMEM containing 10% fetal bovine serum and penicillin and streptomycin. The cells were allowed to adhere to the culture wells at 37° C. overnight and were then transfected with […] NFκB-firefly-luciferase using Superfect Transfection Reagent (Qiagen). Following transfection, the cells were washed once with phosphate buffered saline and cultured for 24 hours at 37° C. in 1.0 ml DMEM containing 0.5% fetal bovine serum. After various treatments, the culture medium was aspirated and the cells were washed once with PBS. The cells were lysed in […] Passive Lysis Buffer (Promega) with rocking at room temperature for 15 minutes. Renilla- and Firefly-luciferase were assayed simultaneously using the Dual-Luciferase Reporter Assay System (Promega) and a TD-20/20 luminometer (Turner Designs, Sunnyvale, Calif.). Activation of NFκB was reported as a ratio of the firefly luciferase activity to the constitutively expressed Renilla luciferase internal control, and is the mean of triplicate wells.
To determine whether and under what conditions HS stimulates TLR4, various combinations of TLR4, MD2 and CD14, components of the putative TLR4 receptor complex, were stably expressed in HEK 293 cells and the effect of HS on TLR4 signaling in the transfected cells was examined (FIG. 1). The HEK 293 cells expressing receptor components were transiently transfected with a NFκB-firefly luciferase reporter construct along with a Renilla-luciferase internal control reporter construct. […]

[1] = HEK 293 cells lacking TLR4 and MD2 or CD14
[2] = HEK 293 cells that expressed TLR4, MD2, and CD14

Substance | NFκB reporter response to elastase alone (HEK/TLR4(+) cells cultured in ECM, elastase 0.1 U/ml, no HS) | NFκB reporter response to elastase alone (HEK/TLR4(+) cells cultured on ECM, elastase 0.3 U/ml) | Activation in response to HS relative to cells not treated with elastase (HEK/TLR4(+) cells on ECM, elastase 0.1 U/ml plus HS) [fold] | Activation of reporter expression after elastase pre-treatment and treatment with HS or LPS (HEK/TLR4(+) cells on PAEC ECM, versus control cells not pre-treated) | NFκB reporter response to elastase (HEK/TLR4(+) cells on fibronectin, elastase 0.1 or 0.3 U/ml) | Activation of NFκB-luciferase reporter [1] | Activation of NFκB-luciferase reporter [2] | Effect of nitrous acid treatment on ability to stimulate TLR4 (HEK/TLR4(+) cells, nitrous acid pH 4.0 or pH 1.5)
elastase: pancreatic elastase (Calbiochem; type IV porcine pancreatic elastase, Sigma-Aldrich), protease that cleaves ECM proteins | did not respond | responded even without addition of HS | 2 | greater | did not respond to either concentration of elastase | – | – | –
heparan sulfate [HS] | – | – | – | – | – | did not respond | activated | –
lipopolysaccharide [LPS] | – | – | – | – | – | did not respond | activated | did not affect
